The target of this assay is T1, UBE4B (human, UniProt O95155 1-1302, limits assumed).
T1 sequence (looked up): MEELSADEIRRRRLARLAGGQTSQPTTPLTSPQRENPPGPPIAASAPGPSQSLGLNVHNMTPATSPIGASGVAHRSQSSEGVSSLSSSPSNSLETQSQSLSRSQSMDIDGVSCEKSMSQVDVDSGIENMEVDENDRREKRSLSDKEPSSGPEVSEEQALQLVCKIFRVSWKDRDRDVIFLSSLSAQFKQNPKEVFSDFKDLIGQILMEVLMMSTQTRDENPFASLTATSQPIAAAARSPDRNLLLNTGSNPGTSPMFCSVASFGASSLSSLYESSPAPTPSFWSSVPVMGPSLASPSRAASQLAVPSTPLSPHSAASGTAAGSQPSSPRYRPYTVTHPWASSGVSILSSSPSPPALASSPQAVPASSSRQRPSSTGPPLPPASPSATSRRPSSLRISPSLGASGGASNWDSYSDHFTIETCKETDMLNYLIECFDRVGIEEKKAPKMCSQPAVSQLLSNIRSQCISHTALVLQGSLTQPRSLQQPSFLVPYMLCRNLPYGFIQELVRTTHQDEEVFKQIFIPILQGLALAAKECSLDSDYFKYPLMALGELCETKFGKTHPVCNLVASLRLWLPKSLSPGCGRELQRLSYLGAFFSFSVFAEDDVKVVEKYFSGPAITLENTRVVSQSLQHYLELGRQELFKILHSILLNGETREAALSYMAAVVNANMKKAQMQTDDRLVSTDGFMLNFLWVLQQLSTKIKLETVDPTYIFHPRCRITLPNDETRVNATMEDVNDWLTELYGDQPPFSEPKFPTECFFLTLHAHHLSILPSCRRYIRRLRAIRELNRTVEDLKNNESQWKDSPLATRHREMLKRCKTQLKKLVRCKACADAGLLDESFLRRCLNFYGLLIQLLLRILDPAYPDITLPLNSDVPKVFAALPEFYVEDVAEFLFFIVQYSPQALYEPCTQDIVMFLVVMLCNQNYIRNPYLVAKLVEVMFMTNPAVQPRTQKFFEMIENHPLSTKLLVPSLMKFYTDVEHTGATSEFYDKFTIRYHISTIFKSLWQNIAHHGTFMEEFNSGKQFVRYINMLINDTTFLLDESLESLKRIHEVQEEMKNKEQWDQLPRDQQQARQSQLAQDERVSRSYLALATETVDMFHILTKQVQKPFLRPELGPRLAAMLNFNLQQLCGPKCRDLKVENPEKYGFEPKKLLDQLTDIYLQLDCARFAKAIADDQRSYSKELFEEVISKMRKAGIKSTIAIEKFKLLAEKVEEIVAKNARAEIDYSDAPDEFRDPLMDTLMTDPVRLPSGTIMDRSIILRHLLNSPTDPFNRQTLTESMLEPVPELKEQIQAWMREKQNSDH
Put plainly: IP/MS, LZTR1 R810W-FLAG, U87. Put shortly:
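Gel slices were reduced with 5 mM DTT, alkylated with 11 mM IAA and digested overnight at 37° C. with trypsin. Peptides were analysed on an Orbitrap Fusion Tribrid by LC-MS/MS.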

B1: LZTR1 R810W-FLAG (other, human, UniProt Q8N653 1-840, looked up)
chain: MAGPGSTGGQIGAAALAGGARSKVAPSVDFDHSCSDSVEYLTLNFGPFETVHRWRRLPPCDEFVGARRSKHTVVAYKDAIYVFGGDNGKTMLNDLLRFDVKDCSWCRAFTTGTPPAPRYHHSAVVYGSSMFVFGGYTGDIYSNSNLKNKNDLFEYKFATGQWTEWKIEGRLPVARSAHGATVYSDKLWIFAGYDGNARLNDMWTIGLQDRELTCWEEVAQSGEIPPSCCNFPVAVCRDKMFVFSGQSGAKITNNLFQFEFKDKTWTRIPTEHLLRGSPPPPQRRYGHTMVAFDRHLYVFGGAADNTLPNELHCYDVDFQTWEVVQPSSDSEVGGAEVPERACASEEVPTLTYEERVGFKKSRDVFGLDFGTTSAKQPTQPASELPSGRLFHAAAVISDAMYIFGGTVDNNIRSGEMYRFQFSCYPKCTLHEDYGRLWESRQFCDVEFVLGEKEECVQGHVAIVTARSRWLRRKITQARERLAQKLEQEAAPVPREAPGVAAGGARPPLLHVAIREAEARPFEVLMQFLYTDKIKYPRKGHVEDVLLIMDVYKLALSFQLCRLEQLCRQYIEASVDLQNVLVVCESAARLQLSQLKEHCLNFVVKESHFNQVIMMKEFERLSSPLIVEIVRRKQQPPPRTPLDQPVDIGTSLIQDMKAYLEGAGAEFCDITLLLDGHPRPAHKAILAARSSYFEAMFRSFMPEDGQVNISIGEMVPSRQAFESMLRYIYYGEVNMPPEDSLYLFAAPYYYGFYNNRLQAYCKQNLEMNVTVQNVLQILEAADKTQALDMKRHCLHIIVHQFTKVSKLPTLWSLSQQLLLDIIDSLASHISDKQCAELGADI
notes: Stably expressed in U87 cells by lentivirus; also called LZTR1-FLAG-R810W; LZTR1 RW; not shown: FLAG tag
With B1, the binding result is on record as “binds”.

For the origin of these results see US20250262210A1 (TRUSTEES OF COLUMBIA UNIVERSITY IN THE CITY OF NEW YORK, published 2025).
